Data on 2 proteins can be found in patent EP1063290A1, “NOVEL DICARBONYLREDUCTASE AND GENE ENCODING THE SAME” (TAISHO PHARMACEUTICAL CO., LTD, priority 1998, dated 1999).

What all share (test): purified protein, by the assay type
Substrate in data set [1]: CC(=O)C(C)O
Conditions: other: rate constants for the major substrates, mouse enzyme; pH 7.0; 25.0 °C.

Substrate in data set [2]: CCC(=O)C(=O)CC
Substrate in data set [3]: O=Cc1cccnc1
To be noted: other: rate constants for the major substrates, mouse enzyme; pH 7.0; 25.0 °C.

Substrate in data set [4]: CCCC(=O)C(C)=O
Substrate in data set [5]: CC(=O)C(C)=O
Substrate in data set [6]: COC(=O)C(=O)c1ccccc1
Conditions: other: rate constants for the major substrates, mouse enzyme; pH 7.0; 25.0 °C.

Substrate in data set [7]: COC(=O)C(C)=O
To be noted: other: rate constants for the major substrates, mouse enzyme; pH 7.0; 25.0 °C.

Substrate in data set [8]: CCCCC(=O)C(C)=O
To be noted: other: rate constants for the major substrates, mouse enzyme; pH 7.0; 25.0 °C.

Substrate in data set [9]: O=Cc1ccncc1
Conditions: other: rate constants for the major substrates, mouse enzyme; pH 7.0; 25.0 °C.

Substrate in data set [10]: CC(=O)C(=O)c1ccccc1
To be noted: pH 7.0; 25.0 °C.

Substrate in data set [11]: CCC(=O)C(C)=O
Substrate in data set [12]: O=C(CBr)C(=O)CBr
To be noted: other: assay at pH 7.0, 25.0 °C.

The mark [13] stands for this setting: other: rate constants for the major substrates, mouse enzyme, pH 7.0, 25.0 °C.
Setting [14] is: other: assay at pH 7.0, 25.0 °C.

B1: protein DCR1 (Mus musculus) (protein)
chain: MDLGLAGRRALVTGAGKGIGRSTVLALKAAGAQVVAVSRTREDLDDLVRECPGVEPVCVDLADWEATEQALSNVGPVDLLVNNAAVALLQPFLEVTKEACDTSFNVNLRAVIQVSQIVAKGMIARGVPGAIVNVSSQASQRALTNHTVYCSTKGALDMLTKMMALELGPHKIRVNAVNPTVVMTPMGRTNWSDPHKAKAMLDRIPLGKFAEVENVVDTILFLLSNRSGMTTGSTLPVDGGFLAT
As for B1, the Km was 6,500 µM in [1]; 130 µM in data set [2] (setting [13]); 7,900 µM in data set [3]; 230 µM in data set [4] (setting [13]); 900 µM in [5] (setting [13]); 690 µM in data set [6]. Also, the Km in [7] was 1,700 µM; in data set [8], 200 µM; in [9], 4,400 µM; in [10], 140 µM; in [11] (setting [13]) it was 280 µM. In addition, the Vmax in [1] turned out to be 0.51 unit/mg; in data set [2] (setting [13]) it was 6.6 unit/mg; in data set [3], 0.62 unit/mg; in data set [4] (setting [13]), 4.1 unit/mg; in [6] it was 8.7 unit/mg; in data set [7], 2.7 unit/mg. Moreover, the Vmax was 4.4 unit/mg in data set [8], 0.78 unit/mg in data set [9], 6.7 unit/mg in [10] and 5.7 unit/mg in data set [11] (setting [13]). Further, the Vmax/Km in data set [1] was 0.08 unit/mg/mM; in data set [2] (setting [13]) it was 51 unit/mg/mM; in data set [3] it was 0.08 unit/mg/mM; in data set [4] (setting [13]), 18 unit/mg/mM; in data set [6] it was 13 unit/mg/mM; in [7], 1.6 unit/mg/mM. The Vmax/Km in data set [8] amounted to 22 unit/mg/mM; in data set [9], 0.18 unit/mg/mM; in data set [10], 48 unit/mg/mM; in data set [11] (setting [13]), 20 unit/mg/mM.

B2: protein hDCR1 (Homo sapiens) (protein)
chain: MELFLAGRRVLVTGAGKGIGRGTVQALHATGARVVAVSRTQADLDSLVRECPGIEPVCVDLGDWEATERALGSVGPVDLLVNNAAVALLQPFLEVTKEAFDRSFEVNLRAVIQVSQIVARGLIARGVPGAIVNVSSQCSQRAVTNHSVYCSTKGALDMLTKVMALELGPHKIRVNAVNPTVVMTSMGQATWSDPHKAKTMLNRIPLGKFAEVEHVVNAILFLLSDRSGMTTGSTLPVEGGFWAC
For the protein B2, the Michaelis constant (Km) entry in data set [2] (setting [14]) is given as “(0.12) mM”; in data set [4] (setting [14]), “(0.24) mM”; in data set [5] (setting [14]) it was “(0.25) mM”; in [12], “(0.016) mM”; in [11] (setting [14]), “(0.26) mM”.
